Laboratory results taken from the RNAGym collection of RNA variant scans (doi:10.7554/elife.90254).

B1: LINE1-full (parent)
chain: UACGUAGGUGGUUUUCCCCUGAUAGUGCUAAGGGGGCCUGGAAGUUUGGACUGGGCAGAGCUCAACACAGCGUGGCAAAGUGGCUGUGGCUAGACUGCCUCUCUGGAUUCCUCGUCACUCAGCAGGGCAUCUCUGAGAGAAAUGCC

Variants of: B1
Test: self-cleavage, relative activity (ratio to wild type); higher = more cleavage; in vitro, sequencing; the parent is a self-cleaving ribozyme

Row | Variant | self-cleavage
1 | UACGUAGGUGGAUUUACCCUGAUAGUGCUAAGGGGGCCUGGAAGUUUGGACUGGGCAGAGCUCAACACAGCGUGGCAAAGUGGCUGUGGCUAGACUGCCUCUCUGGAUUCCUCGUCACUCAGCAGGGCAUCUCUGAGAGAAAUGCC | 0.97
2 | UACGUAGGUGGAUUUCCGCUGAUAGUGCUAAGGGGGCCUGGAAGUUUGGACUGGGCAGAGCUCAACACAGCGUGGCAAAGUGGCUGUGGCUAGACUGCCUCUCUGGAUUCCUCGUCACUCAGCAGGGCAUCUCUGAGAGAAAUGCC | 1.01
3 | UACGUAGGUGGAUUUCCCCUGAUAGUGCUAAGGGGGCCUGGAAGUUUGGAAUGGGCAGAGCUCAACACAGCGUGGCAAAGUGGCUGUGGCUAGACUGCCUCUCUGGAUUCCUCGUCACUCAGCAGGGCAUCUCUGAGAGAAAUGCC | 1.16
4 | UACGUAGGUGGAUUUCCCCUGAUAGUGCUAAGGGGGCCUGGAAGUUUGGACUGGGCAGAGCUCAAUACAGCGUGGCAAAGUGGCUGUGGCUAGACUGCCUCUCUGGAUUCCUCGUCACUCAGCAGGGCAUCUCUGAGAGAAAUGCC | 0.06
5 | UACGUAGGUGGAUUUCCCCUGAUAGUGCUAAGGGGGCCUGGAAGUUUGGACUGGGCAGAGCUCAACACAGCGUGGUAAAGUGGCUGUGGCUAGACUGCCUCUCUGGAUUCCUCGUCACUCAGCAGGGCAUCUCUGAGAGAAAUGCC | 1.23
6 | UACGUAGGUGGAUUUCCCCUAAUAGUGCUAAGGGGGCCUGGAAGUUUGGACUGGGCAGAGCUCAACACAGCGUGGCAAAGUGGCUGUGGCUAGACUGCCUCUCUGGAUUCCUCGUCACUCAGCAGGGCAUCUCUGAGAGAAAUGCC | 1.08
7 | UACGUAGGUGGAUUUCCCCUGAUAGUGCUAAGGGGGCCUGGAAGUUUGGACUCGGCAGAGCUCAACACAGCGUGGCAAAGUGGCUGUGGCUAGACUGCCUCUCUGGAUUCCUCGUCACUCAGCAGGGCAUCUCUGAGAGAAAUGCC | 1.12
8 | UACGUAGGUGGAUUUCCCCUGAUAGUGCUAAGGGGGCCUGGAAGUUUGGACUGGGCAGAGCUCAACACAACGUGGCAAAGUGGCUGUGGCUAGACUGCCUCUCUGGAUUCCUCGUCACUCAGCAGGGCAUCUCUGAGAGAAAUGCC | 0.18
9 | UACGUAGGUGGAUUUCCCCUGAUAGUGCUAAGGGGGCCUGGAAGUUUGGACUGGGCAGAGCUCAACACAGCAUGGCAAAGUGGCUGUGGCUAGACUGCCUCUCUGGAUUCCUCGUCACUCAGCAGGGCAUCUCUGAGAGAAAUGCC | 1.41
10 | UACGUAGGUGGAAUUCCCCUGAUAGUGCUAAGGGGGCCUGGAAGUUUGGACUGGGCAGAGCUCAACACAGCGUGGCAAAGUGGCUGUGGCUAGACUGCCUCUCUGGAUUCCUCGUCACUCAGCAGGGCAUCUCUGAGAGAAAUGCC | 1.08
11 | UACGUAGGUGGAUAUCCCCUGAUAGUGCUAAGGGGGCCUGGAAGUUUGGACUGGGCAGAGCUCAACACAGCGUGGCAAAGUGGCUGUGGCUAGACUGCCUCUCUGGAUUCCUCGUCACUCAGCAGGGCAUCUCUGAGAGAAAUGCC | 0.27
12 | UACGUAGGUGGAUUUCCCCCGAUAGUGCUAAGGGGGCCUGGAAGUUUGGACUGGGCAGAGCUCAACACAGCGUGGCAAAGUGGCUGUGGCUAGACUGCCUCUCUGGAUUCCUCGUCACUCAGCAGGGCAUCUCUGAGAGAAAUGCC | 1.05
13 | UACGUAGGUGGAUUUCCCCUGAAAGUGCUAAGGGGGCCUGGAAGUUUGGACUGGGCAGAGCUCAACACAGCGUGGCAAAGUGGCUGUGGCUAGACUGCCUCUCUGGAUUCCUCGUCACUCAGCAGGGCAUCUCUGAGAGAAAUGCC | 1.58
14 | UACGUAGGUGGAUUUCCCCUGACAGUGCUAAGGGGGCCUGGAAGUUUGGACUGGGCAGAGCUCAACACAGCGUGGCAAAGUGGCUGUGGCUAGACUGCCUCUCUGGAUUCCUCGUCACUCAGCAGGGCAUCUCUGAGAGAAAUGCC | 1.47
15 | UACGUAGGUGGAUUUCCCCUGAUAGUGCUAAGGGGGCCUGGAAGGUUGGACUGGGCAGAGCUCAACACAGCGUGGCAAAGUGGCUGUGGCUAGACUGCCUCUCUGGAUUCCUCGUCACUCAGCAGGGCAUCUCUGAGAGAAAUGCC | 1.33
16 | UACGUAGGUGGAUUUCCCCUGAUAGUGCUAAGGGGGCCUGGAAGUUUGGACGGGGCAGAGCUCAACACAGCGUGGCAAAGUGGCUGUGGCUAGACUGCCUCUCUGGAUUCCUCGUCACUCAGCAGGGCAUCUCUGAGAGAAAUGCC | 2.35
17 | UACGUAGGUGGAUUUCCCCUGAUAGUGCUAAGGGGGCCUGGAAGUUUGGACUGGGCAGAGCACAACACAGCGUGGCAAAGUGGCUGUGGCUAGACUGCCUCUCUGGAUUCCUCGUCACUCAGCAGGGCAUCUCUGAGAGAAAUGCC | 0.05
18 | UACGUAGGUGGAUUUCCCCUGAUAGUGCUAAGGGGGCCUGGAAGUUUGGACUGGGCAGAGCCCAACACAGCGUGGCAAAGUGGCUGUGGCUAGACUGCCUCUCUGGAUUCCUCGUCACUCAGCAGGGCAUCUCUGAGAGAAAUGCC | 0.12
19 | UACGUAGGUGGAUUUCCCCUGAUAGUGCUAAGGGGGCCUGGAAGUUUGGACUGGGCAGAGCGCAACACAGCGUGGCAAAGUGGCUGUGGCUAGACUGCCUCUCUGGAUUCCUCGUCACUCAGCAGGGCAUCUCUGAGAGAAAUGCC | 0.06
20 | UACGUAGGUGGAUUUCCCCUGAUAGUGCUAAGGGGGCCUGGAAGUUUGGACUGGGCAGAGCUCAACACAGCGUGGCAAAGUGGCCGUGGCUAGACUGCCUCUCUGGAUUCCUCGUCACUCAGCAGGGCAUCUCUGAGAGAAAUGCC | 0.2

Row | Variant | self-cleavage
21 | UACGUAGGUGGAUUUCCCCUGAUAGUGCUAAGGGGGCCUGGAAGUUUGGACUGGGCAGAGCUCAACACAGCGUGGCAAAGUGGCUGAGGCUAGACUGCCUCUCUGGAUUCCUCGUCACUCAGCAGGGCAUCUCUGAGAGAAAUGCC | 0.11
22 | UACGUAGGUGGAUUUCCCCUGAUAGUGCUAAGGGGGCCUGGAAGUUUGGACUGGGCAGAGCUCAACACAGCGUGGCAAAGUGGCUGUGGCAAGACUGCCUCUCUGGAUUCCUCGUCACUCAGCAGGGCAUCUCUGAGAGAAAUGCC | 0.82
23 | UACGUAGGUGGAUUUCCCCUGAUAGUGCUAAGGGGGCCUGGAAGUUUGGACUGGGCAGAGCUCAACACAGCGUGGCAAAGUGGCUGUGGCCAGACUGCCUCUCUGGAUUCCUCGUCACUCAGCAGGGCAUCUCUGAGAGAAAUGCC | 0.54
24 | UACGUAGGUGGAUUUCCCCUGAUAGUGCUAAGGGGGCCUGGAAGUUUGGACUGGGCAGAGCUCAACACAGCGUGGCAAAGUGGCUGUGGCUAGACCGCCUCUCUGGAUUCCUCGUCACUCAGCAGGGCAUCUCUGAGAGAAAUGCC | 0.28
25 | UACGUAGGUGGAUUUCCCCUGAUAGUGCUAAGGGGGCCUGGAAGUUUGGACUGGGCAGAGCUCAACACAGCGUGGCAAAGUGGCUGUGGCUAGACUGCCCCUCUGGAUUCCUCGUCACUCAGCAGGGCAUCUCUGAGAGAAAUGCC | 1.64
26 | UACGUAGGUGGAUUUCCCCUGAUAGUGCUAAGGGGGCCUGGAAGUUUGGACUGGGCAGAGCUCAACACAGCGUGGCAAAGUGGCUGUGGCUAGACUGCCUCACUGGAUUCCUCGUCACUCAGCAGGGCAUCUCUGAGAGAAAUGCC | 1.79
27 | UACGUAGGUGGAUUUCCCCUGAUAGUGCUAAGGGGGCCUGGAAGUUUGGACUGGGCAGAGCUCAACACAGCGUGGCAAAGUGGCUGUGGCUAGACUGCCUCUCUGGAUUCCCCGUCACUCAGCAGGGCAUCUCUGAGAGAAAUGCC | 1.3
28 | UACGUAGGUGGAUUUCCCCUGAUAGUGCUAAGGGGGCCUGGAAGUUUGGACUGGGCAGAGCUCAACACAGCGUGGCAAAGUGGCUGUGGCUAGACUGCCUCUCUGGAUUCCUCGACACUCAGCAGGGCAUCUCUGAGAGAAAUGCC | 1.58
29 | UACGUAGGUGGAUUUCCCCUGAUAGUGCUAAGGGGGCCUGGAAGUUUGGACUGGGCAGAGCUCAACACAGCGUGGCAAAGUGGCUGUGGCUAGACUGCCUCUCUGGAUUCCUCGCCACUCAGCAGGGCAUCUCUGAGAGAAAUGCC | 1.21
30 | UACGUAGGUGGAUUUCCCCUGAUAGUGCUAAGGGGGCCUGGAAGUUUGGACUGGGCAGAGCUCAACACAGCGUGGCAAAGUGGCUGUGGCUAGACUGCCUCUCUGGAUUCCUCGUCACCCAGCAGGGCAUCUCUGAGAGAAAUGCC | 1.54
31 | UACGUAGGUGGAUUUCCCCUGAUAGUGCUAAGGGGGCCUGGAAGUUUGGACUGGGCAGAGCUCAACACAGCGUGGCAAAGUGGCUGUGGCUAGACUGCCUCUCUGGAUUCCUCGUCACUCAGCAGGGCAUCCCUGAGAGAAAUGCC | 1.41
32 | UACGUAGGUGGAUUUCCCCUGAUAGUGCUAAGGGGGCCUGGAAGUUUGGACUGGGCAGAGCUCAACACAGCGUGGCAAAGUGGCUGUGGCUAGACUGCCUCUCUGGAUUCCUCGUCACUCAGCAGGGCAUCUCUGAGAGAAAAGCC | 1.28
33 | UACGUAGGUGGAUUUCCCCUGAUAGUGCUAAGGGGGCCUGGAAGUUUGGACUGGGCAGAGCUCAACACAGCGUGGCAAAGUGGCUGUGGCUAGACUGCCUCUCUGGAUUCCUCGUCACUCAGCAGGGCAUCUCUGAGAGAAACGCC | 1.14
34 | UACGUAGGUGGCUUUCCCCUGAUAGUGCUAAGGGGGCCUGGAAGUUUGGACUGGGCAGAGCUCAACACAGCGUGGCAAAGUGGCUGUGGCUAGACUGCCUCUCUGGAUUCCUCGUCACUCAGCAGGGCAUCUCUGAGAGAAAUGCC | 1.29
35 | UACGUAGGUGGCUUUCCCCUGUUAGUGCUAAGGGGGCCUGGAAGUUUGGACUGGGCAGAGCUCAACACAGCGUGGCAAAGUGGCUGUGGCUAGACUGCCUCUCUGGAUUCCUCGUCACUCAGCAGGGCAUCUCUGAGAGAAAUGCC | 1.68
36 | UACGUAGGUGGCUUUCCCCUGAUCGUGCUAAGGGGGCCUGGAAGUUUGGACUGGGCAGAGCUCAACACAGCGUGGCAAAGUGGCUGUGGCUAGACUGCCUCUCUGGAUUCCUCGUCACUCAGCAGGGCAUCUCUGAGAGAAAUGCC | 1.61
37 | UACGUAGGUGGCUUUCCCCUGAUUGUGCUAAGGGGGCCUGGAAGUUUGGACUGGGCAGAGCUCAACACAGCGUGGCAAAGUGGCUGUGGCUAGACUGCCUCUCUGGAUUCCUCGUCACUCAGCAGGGCAUCUCUGAGAGAAAUGCC | 1.18
38 | UACGUAGGUGGCUUUCCCCUGAUAGUGCUAGGGGGGCCUGGAAGUUUGGACUGGGCAGAGCUCAACACAGCGUGGCAAAGUGGCUGUGGCUAGACUGCCUCUCUGGAUUCCUCGUCACUCAGCAGGGCAUCUCUGAGAGAAAUGCC | 1.24
39 | UACGUAGGUGGCUUUCCCCUGAUAGUGCUAAGGGGGCCUGGCAGUUUGGACUGGGCAGAGCUCAACACAGCGUGGCAAAGUGGCUGUGGCUAGACUGCCUCUCUGGAUUCCUCGUCACUCAGCAGGGCAUCUCUGAGAGAAAUGCC | 0.85
